According to US20240239885A1, “ANTIBODY CONJUGATE COMPRISING ANTI-P-CADHERIN ANTIBODY AND USES THEREOF” (WUXI BIOLOGICS IRELAND LIMITED, priority 2021, published 2024):
Starred links: 1 amine or outer side, 2 acyl side, 3 side chain; linkers in the order of their positions; H or OH if unused. Non-standard residues stand in square brackets, D forms with d. Residues, ends and D or L forms follow the SMILES beside them. *: point of attachment. Dolaproine = CO[C@@H]([C@@H]1CCCN1)[C@@H](C)C(=O)O; Hexanoyl(6-maleimido) = O=C1C=CC(=O)N1CCCCCC(=O)*; Dil = CC[C@H](C)[C@H](NC)[C@@H](CC(=O)O)OC; PABC = O=C(OCc1ccc(N[*:1])cc1)[*:2]; X1 = C[C@@H](N*)[C@@H](O)c1ccccc1; Cit = NC(=O)NCCC[C@H](N)C(=O)O; NMeV = CN[C@H](C(=O)O)C(C)C

Legend:
[1] = molecular target: T1, human P-cadherin expressed on cells (human, UniProt P22223 108-829); test: FACS on HCT-116 cells
Protocol: Binding of the ADCs to P-cadherin expressed on HCT-116 cells was determined by flow cytometry analysis using the same procedure as described above. […] 1×10⁵ cells/well (100 μL) were added to each well of a 96-well U-plate (Corning, #3799) and centrifuged at 1500 rpm (Eppendorf, #5810R) for 5 minutes before removing the supernatant. Antibodies serially diluted in 1% BSA/1×PBS (Ca+/Mg+) were added at 100 μL/well to the pelleted cells and incubated at 4° C. for 1 hour. […] Cells were washed two times with 180 μL/well of 1% BSA/1×PBS (Ca+/Mg+) by centrifugation at 1500 rpm for 5 minutes at 4° C. Pelleted cells were resuspended in 100 μL/well Alexa647 conjugated Goat anti-human IgG Fc (Jackson, #109-605-098) 1:500 diluted in 1% BSA/1×PBS (Ca+/Mg+) for 30 minutes at 4° C. in the dark. Cells were then washed two times as described above. After the final wash, cells were resuspended in 100 μL 1% BSA/1×PBS (Ca+/Mg+) and fluorescence values were measured with a FACS Canto II cytometer (BD Biosciences). The amount of cell surface bound anti-P-Cadherin antibody was assessed by measuring the mean fluorescence (MFI).

[2] = molecular target: T2, P-Cadherin ECD domain 1+2+3 (aa 108-461) (human, UniProt P22223 108-461); test: direct ELISA, coated antigen
T2 construct: range 108-461; also called huCDH3 ECD Domain1 + 2 + 3
Protocol: (§1) The binding domains of the antibody drug conjugates to human P-Cadherin extra cellular domain (ECD) were determined by a direct protein binding ELISA. 96-well high protein binding ELISA plates (Nunc) were coated overnight at 4° ° C. with antigens in coating buffer. All wells were washed three time with PBS/0.5%. Tween-20 (v/v) and all the following wash steps in the assay were performed the same. The wells were then blocked for one hour with 2% BSA (Bovogen)/1×PBS (Ca+/Mg+) (Gibco) and washed three times. For the primary antibody binding, the testing antibodies including the BMKs and our antibodies serially diluted in 2% BSA/1×PBS (Ca+/Mg+) were added to the relevant wells and incubated at ambient temperature for two hours. Plates were washed three times prior to the addition of 100 μL of secondary antibody Goat anti-Human-IgG-F(ab′)2-HRP (Jackson) diluted in 2% BSA/1×PBS (Ca+/Mg+). Plates were incubated at room temperature for one hour, followed by six washes as describe above.
(§2) For the binding detection, 100 μL Tetramethylbenzidine (TMB) Substrate solution (Invitrogen) was added to all wells before stopping the reaction with 100 μL 2M HCl. The extent of the testing Abs binding to P-Cadherin ECD (i.e. huCDH3 ECD, Uniprot ID: P22223 aa108-654), P-Cadherin ECD domain 1 (aa 108-236), P-Cadherin ECD domain 1+2 (aa 108-348), P-Cadherin ECD domain 1+2+3 (aa 108-461), P-Cadherin ECD domain 1+2+3+4 (aa 108-550) proteins were determined by measuring the OD450-OD540 absorbance using the SpectraMax® M5e microplate reader. EC50 values were obtained by the four-parameter non-linear regression analysis using GraphPad Prism software.

[3] = molecular target: T3, P-Cadherin ECD domain 1+2 (aa 108-348) (human, UniProt P22223 108-348); test: direct ELISA, coated antigen
T3 construct: range 108-348; also called huCDH3 ECD Domain1 + 2
Protocol: as §1, §2

[4] = molecular target: T4, P-Cadherin ECD domain 1 (aa 108-236) (human, UniProt P22223 108-236); test: direct ELISA, coated antigen
T4 construct: range 108-236; also called huCDH3 ECD Domain1
Protocol: as §1, §2

[5] = molecular target: T1, human P-cadherin expressed on cells; test: FACS on NCI-H1650 cells
NCI-H1650 cells = test: Cytotoxicity assay of ADC (Cell Titer Glo) on NCI-H1650; format: cell-based, human; conditions: NCI-H1650, 5 days
HCC-1954 cells = test: Cytotoxicity assay of ADC (Cell Titer Glo) on HCC-1954; conditions: HCC-1954, 5 days; for IC50: read-out: IC50 (nM), ADC cytotoxicity
HCC-70 cells = test: Cytotoxicity assay of ADC (Cell Titer Glo) on HCC-70; conditions: HCC-70, 5 days; for IC50: read-out: IC50 (nM), ADC cytotoxicity
HT-29 cells = test: Cytotoxicity assay of ADC (Cell Titer Glo) on HT-29; conditions: for Max Inh %: HT-29, 5 days; for IC50: read-out: IC50 (nM), ADC cytotoxicity, HT-29 (P-cadherin low expressing), 5 days
A549 cells = test: Cytotoxicity assay of ADC (Cell Titer Glo) on A549; format: cell-based, human; conditions: for IC50: A549 (P-cadherin low expressing), 5 days, read-out: IC50 (nM), ADC toxicity; for Max Inh %: A549, 5 days
MDA-MB-453 cells = test: Cytotoxicity assay of ADC (Cell Titer Glo) on MDA-MB-453; format: cell-based, human; conditions: for IC50: MDA-MB-453 (P-cadherin low expressing), 5 days, read-out: IC50 (nM), ADC toxicity; for Max Inh %: MDA-MB-453, 5 days
[6] = molecular target: T1, human P-cadherin expressed on cells; test: cell-based or functional assay
[7] = molecular target: T1, human P-cadherin expressed on cells; test: FACS on HCT-116 cells after 14 days in human serum at 37 C
Protocol: (§3) The antibody stability in human serum was tested by FACS. Briefly, human serum was freshly isolated by centrifuging the fresh blood twice at 4000 rpm for 10 minutes. […] As a control, antibodies serum mix was frozen immediately without 37° C. incubation. For the FACS analysis, the samples from different time points were free-thawed simultaneously at 4° C. […] The cells were washed twice with 1% BSA/1×PBS (Ca+/Mg+). Alexa647 conjugated Goat anti-human IgG Fc (Jackson, #109-605-098) 1:500 diluted in 1% BSA/1×PBS (Ca+/Mg+) were added to the cells and incubated at 4° C. for 30 minutes. Cells were washed twice in the same buffer and the mean fluorescence (MFI) of stained cells was measured using a FACS Canto II cytometer (BD Biosciences) and analyzed by FlowJo. Wells containing no antibody or secondary antibody only were used to establish background fluorescence. Four-parameter non-linear regression analysis was used to obtain EC50 values for cell binding using GraphPad Prism6 software.

[8] = molecular target: T1, human P-cadherin expressed on cells; test: cell-based or functional assay; remark: listed apart in the source
[9] = molecular target: T3, P-Cadherin ECD domain 1+2 (aa 108-348); test: direct ELISA on coated huCDH3 ECD Domain1+2, goat anti-human IgG F(ab')2-HRP detection
Protocol: as §1, with “Plates were washed three times prior to the addition of 100 μL of secondary antibody Goat anti-Human-IgG-F(ab′)2-HRP (Jackson) diluted in 2% BSA/1×PBS (Ca+/Mg+). Plates were incubated at room temperature for one hour, followed by six washes as describe above.” left out
as §2, with “EC50 values were obtained by the four-parameter non-linear regression analysis using GraphPad Prism software.” left out

[10] = molecular target: T5, P-Cadherin ECD (huCDH3 ECD, Uniprot ID: P22223 aa108-654) (human, UniProt P22223 108-654); test: direct ELISA, coated antigen
T5 construct: range 108-654; also called extracellular domain of human P-cadherin
Protocol: as §1, §2

[11] = molecular target: T6, P-Cadherin ECD domain 1+2+3+4 (aa 108-550) (human, UniProt P22223 108-550); test: direct ELISA, coated antigen
T6 construct: range 108-550; also called huCDH3 ECD Domain1 + 2 + 3 + 4
Protocol: as §1, §2

[12] = molecular target: T1, human P-cadherin expressed on cells; test: FACS on HCT-116 cells after 4 days in human serum at 37 C
Protocol: as §3

[13] = molecular target: T1, human P-cadherin expressed on cells; test: FACS affinity test on NCI-H1650 cells, quantitative beads
[14] = molecular target: T4, P-Cadherin ECD domain 1 (aa 108-236); test: direct ELISA on coated huCDH3 ECD Domain1, goat anti-human IgG F(ab')2-HRP detection
Protocol: as §1, with “Plates were washed three times prior to the addition of 100 μL of secondary antibody Goat anti-Human-IgG-F(ab′)2-HRP (Jackson) diluted in 2% BSA/1×PBS (Ca+/Mg+). Plates were incubated at room temperature for one hour, followed by six washes as describe above.” left out
as §2, with “EC50 values were obtained by the four-parameter non-linear regression analysis using GraphPad Prism software.” left out

[15] = molecular target: T1, human P-cadherin expressed on cells; test: cell-based or functional assay; remark: listed apart in the source
[16] = molecular target: T1, human P-cadherin expressed on cells; test: FACS on HCT-116 cells after 1 day in human serum at 37 C
Protocol: as §3

[17] = molecular target: T1, human P-cadherin expressed on cells; test: cell-based or functional assay; remark: listed apart in the source
[18] = molecular target: T1, human P-cadherin expressed on cells; test: cell-based or functional assay; remark: listed apart in the source
[19] = molecular target: T1, human P-cadherin expressed on cells; test: FACS on HCT-116 cells after 7 days in human serum at 37 C
Protocol: as §3

T2 sequence (P22223 108-461 limits assumed): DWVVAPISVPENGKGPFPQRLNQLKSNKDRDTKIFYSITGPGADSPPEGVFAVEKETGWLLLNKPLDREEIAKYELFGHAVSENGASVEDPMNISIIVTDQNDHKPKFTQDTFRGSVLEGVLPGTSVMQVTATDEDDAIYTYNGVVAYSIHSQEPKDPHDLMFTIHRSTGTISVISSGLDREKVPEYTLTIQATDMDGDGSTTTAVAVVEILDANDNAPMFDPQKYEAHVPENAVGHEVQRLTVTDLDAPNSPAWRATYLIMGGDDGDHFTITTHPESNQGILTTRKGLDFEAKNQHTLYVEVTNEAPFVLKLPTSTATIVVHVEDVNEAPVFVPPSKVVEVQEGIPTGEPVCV
T3 sequence (P22223 108-348 limits assumed): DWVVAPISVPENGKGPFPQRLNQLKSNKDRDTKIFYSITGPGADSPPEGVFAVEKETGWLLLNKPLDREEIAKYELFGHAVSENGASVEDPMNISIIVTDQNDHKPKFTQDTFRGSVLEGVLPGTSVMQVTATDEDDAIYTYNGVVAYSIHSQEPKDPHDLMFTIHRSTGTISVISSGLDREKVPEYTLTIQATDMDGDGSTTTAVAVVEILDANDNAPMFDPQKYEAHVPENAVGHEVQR
T4 sequence (P22223 108-236 limits assumed): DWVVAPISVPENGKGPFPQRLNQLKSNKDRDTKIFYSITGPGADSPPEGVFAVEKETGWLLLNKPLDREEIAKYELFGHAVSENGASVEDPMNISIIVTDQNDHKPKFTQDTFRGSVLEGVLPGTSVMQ
T1 sequence (P22223 108-829): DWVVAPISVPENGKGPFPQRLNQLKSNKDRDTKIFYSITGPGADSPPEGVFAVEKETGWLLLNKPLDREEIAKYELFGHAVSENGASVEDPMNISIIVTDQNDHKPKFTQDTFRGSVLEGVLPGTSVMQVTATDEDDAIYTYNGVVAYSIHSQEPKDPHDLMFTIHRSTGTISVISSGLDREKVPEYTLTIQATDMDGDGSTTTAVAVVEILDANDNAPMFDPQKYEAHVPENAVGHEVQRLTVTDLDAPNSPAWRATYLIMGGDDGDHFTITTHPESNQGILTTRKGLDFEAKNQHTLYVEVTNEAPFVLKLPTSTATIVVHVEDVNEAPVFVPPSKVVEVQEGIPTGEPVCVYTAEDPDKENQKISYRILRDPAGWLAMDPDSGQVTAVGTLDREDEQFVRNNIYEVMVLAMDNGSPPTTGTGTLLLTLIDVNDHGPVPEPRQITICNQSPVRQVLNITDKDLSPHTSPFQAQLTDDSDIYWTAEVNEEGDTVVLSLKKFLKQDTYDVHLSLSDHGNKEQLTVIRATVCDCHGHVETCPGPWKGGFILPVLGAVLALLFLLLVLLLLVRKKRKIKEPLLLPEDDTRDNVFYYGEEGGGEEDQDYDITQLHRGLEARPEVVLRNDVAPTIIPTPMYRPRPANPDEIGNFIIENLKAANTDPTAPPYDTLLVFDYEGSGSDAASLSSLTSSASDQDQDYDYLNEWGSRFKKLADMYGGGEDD
T6 sequence (P22223 108-550 limits assumed): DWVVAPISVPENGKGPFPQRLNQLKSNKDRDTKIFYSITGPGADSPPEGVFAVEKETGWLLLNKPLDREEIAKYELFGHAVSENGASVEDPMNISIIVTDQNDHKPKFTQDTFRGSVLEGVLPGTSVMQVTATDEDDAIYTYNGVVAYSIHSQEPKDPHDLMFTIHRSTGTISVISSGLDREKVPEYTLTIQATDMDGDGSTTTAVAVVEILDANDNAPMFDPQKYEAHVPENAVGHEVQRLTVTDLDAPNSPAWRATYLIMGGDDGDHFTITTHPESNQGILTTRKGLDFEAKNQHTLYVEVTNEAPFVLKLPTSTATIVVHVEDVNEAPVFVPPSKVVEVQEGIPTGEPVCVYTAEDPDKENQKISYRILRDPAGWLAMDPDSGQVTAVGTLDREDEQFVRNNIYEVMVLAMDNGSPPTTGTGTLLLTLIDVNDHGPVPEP
T5 sequence (P22223 other isoform, or with tags, fused parts or gaps limits assumed): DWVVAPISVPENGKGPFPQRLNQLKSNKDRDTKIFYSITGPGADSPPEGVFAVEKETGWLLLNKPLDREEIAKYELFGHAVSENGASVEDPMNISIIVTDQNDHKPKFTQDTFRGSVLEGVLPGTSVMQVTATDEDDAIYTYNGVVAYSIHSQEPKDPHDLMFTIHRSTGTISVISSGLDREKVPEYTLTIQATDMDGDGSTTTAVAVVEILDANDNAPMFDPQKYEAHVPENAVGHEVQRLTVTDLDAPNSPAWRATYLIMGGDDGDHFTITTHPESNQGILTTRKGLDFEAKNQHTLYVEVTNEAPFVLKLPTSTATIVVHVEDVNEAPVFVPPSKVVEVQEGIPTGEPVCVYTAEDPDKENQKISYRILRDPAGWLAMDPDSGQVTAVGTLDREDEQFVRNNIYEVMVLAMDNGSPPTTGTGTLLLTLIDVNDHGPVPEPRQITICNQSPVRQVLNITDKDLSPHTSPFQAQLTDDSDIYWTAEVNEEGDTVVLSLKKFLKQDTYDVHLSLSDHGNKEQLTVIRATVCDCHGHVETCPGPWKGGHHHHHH

Row | Molecule | Max OD [2] | Max OD [3] | Max OD [4] | Max Inh % (NCI-H1650 cells) | Max Inh % (HCC-1954 cells) | IC50 (HCC-1954 cells) | Max Inh % (HCC-70 cells) | IC50 (HCC-70 cells) | Max Inh % (HT-29 cells) | IC50 (HT-29 cells) | IC50 (A549 cells) | Max Inh % (A549 cells) | IC50 (MDA-MB-453 cells) | Max Inh % (MDA-MB-453 cells) | further results
1 | Isotype control (non-related hIgG1 antibody) | 0.015 OD450-OD540 | 0.014 OD450-OD540 | 0.014 OD450-OD540 |  |  |  |  |  |  |  |  |  |  |  | Max MFI [1]: 402 MFI; Max MFI [5]: 331 MFI
2 | CC[C@H](C)[C@@H]([C@@H](CC(=O)N1CCC[C@H]1[C@H](OC)[C@@H](C)C(=O)N[C@H](C)[C@@H](O)c1ccccc1)OC)N(C)C(=O)[C@@H](NC(=O)[C@H](C(C)C)N(C)C(=O)OCc1ccc(NC(=O)[C@H](CCCNC(N)=O)NC(=O)[C@@H](NC(=O)CCCCCN2C(=O)C=CC2=O)C(C)C)cc1)C(C)C [Free payload control (MC-VC-PAB-MMAE), MC-VC-PAB-MMAE] ({Hexanoyl(6-maleimido)}-V[Cit][PABC][NMeV]V[Dil][Dolaproine]-X1) |  |  |  | 1% | 20.1% | > 10 nM | 1.3% | > 10 nM | −0.1% | > 10 nM | > 10 nM | −5.4% | > 10 nM | −0.6% | IC50 (NCI-H1650 cells): > 10 nM
3 | CC[C@H](C)[C@@H]([C@@H](CC(=O)N1CCC[C@H]1[C@H](OC)[C@@H](C)C(=O)N[C@H](C)[C@@H](O)c1ccccc1)OC)N(C)C(=O)[C@@H](NC(=O)[C@@H](NC)C(C)C)C(C)C [Free drug (MMAE), mono-methyl auristatin E] (H-[NMeV]V[Dil][Dolaproine]-X1) |  |  |  | 81% | 97.7% | 0.05 nM | 87.2% | 0.23 nM | 95.5% | 0.52 nM | 1.37 nM | 89.2% | 1.28 nM | 96.7% | 
4 | W3195-1.53.1-p1-uIgG1L-MMAE (antibody, V domains shown, MC-vc-PAB-MMAE conjugated to cysteine thiols after TCEP reduction (positions not stated); HIC-DAR 3.86 per antibody, also called W3195-p1-MMAE; WBP3195-p1-ADC) VH: QVQLQESGPGLVKPSETLSLTCTVSGGSVISDNYYWTWVRQPPGKGLEFIGYIYYRGSTNYNPSLKNRVIISIDTSRNQFSLDLNSVTAADTAVYYCARDRRTGNSLPFDNWGQGTLVTVSS VL: SYELTQPPSVSVSPGQTAQITCSGDKLGDKFASWYQQKSGQSPVVVIYQDNKRPSGFPERFSGSNSGNTATLTISGTQAMDEADYYCQAWDSSIVVFGGGTKLTVLG | 0.95 OD450-OD540 | 0.16 OD450-OD540 | 0.19 OD450-OD540 |  |  |  |  |  |  |  |  |  |  |  | Internalization of HCC-1954 cells in HCS assay, EC50 [6]: 0.023 nM; EC50 [7]: 0.18 nM; ADC Cytotoxicity on HCC-70, IC50 [8]: 0.065 nM; EC50 [1]: 0.17 nM; binding result [9]: no binding (tested: about 20 nM); EC50 [2]: 0.2 nM; EC50 [10]: 0.23 nM; Max OD [10]: 0.65 OD450-OD540; EC50 [11]: 0.17 nM; Max OD [11]: 0.75 OD450-OD540; EC50 [5]: 0.075 nM; EC50 [12]: 0.18 nM; Kd [13]: 0.168 nM; binding result [14]: no binding (tested: about 20 nM); ADC Cytotoxicity on HCC-1954, IC50 [15]: 0.011 nM; EC50 [16]: 0.15 nM; Internalization of NCI-H1650 cells in HCS assay, EC50 [17]: 0.22 nM; ADC Cytotoxicity on NCI-H1650, IC50 [18]: 0.027 nM; EC50 [19]: 0.17 nM
